For orientation: EC50 means the concentration needed to bring the measured effect to its halfway point. For orientation: Kd means a measure of binding affinity in units of concentration.

Substitutions are numbered along the chain they refer to.

The target of experiment [1] is T1, mouse PDL1 (R&D Systems) (mouse, UniProt Q9EP73 19-238).
T1 construct: also called mPDL1; murine PDL1
The experiment in a line: phage ELISA, antigen adsorbed, anti-M13-HRP. An excerpt:
(§1) Phage were applied to the plate and allowed to bind. Bound phage were visualized with an anti-M13-HRP conjugate (GE Healthcare, Piscataway, N.Y.) and developed with the chromogenic substrate tetramethyl benzidine (TMB) (Thermo Scientific, Rockford, Ill.).
In general terms: In an ELISA, binding on a coated surface is turned into a signal by an enzyme label.

The next experiment has as its target T2, human PDL1 (R&D Systems) (human, UniProt Q9NZQ7 19-239).
T2 construct: also called hPDL1; recombinant human PDL1 protein
The experiment in a line: phage ELISA, antigen adsorbed, anti-M13-HRP.
Text: as §1

The target of experiment [2] is T1, mouse PDL1 (R&D Systems). The experiment in a line: phage ELISA on adsorbed mouse PDL1, PD1-Fc as competitor. An excerpt:
Bound phage were visualized with an anti-M13-HRP conjugate (GE Healthcare, Piscataway, N.Y.) and developed with the chromogenic substrate tetramethyl benzidine (TMB) (Thermo Scientific, Rockford, Ill.).

Experiment [3] deals with T3, mouse PDL1-Fc (R & D Systems) (mouse, UniProt Q9EP73 19-238).
T3 construct: Bought reagent; not shown: Fc part of the bought fusion protein; not described
T3 sequence (Q9EP73 19-238 limits assumed): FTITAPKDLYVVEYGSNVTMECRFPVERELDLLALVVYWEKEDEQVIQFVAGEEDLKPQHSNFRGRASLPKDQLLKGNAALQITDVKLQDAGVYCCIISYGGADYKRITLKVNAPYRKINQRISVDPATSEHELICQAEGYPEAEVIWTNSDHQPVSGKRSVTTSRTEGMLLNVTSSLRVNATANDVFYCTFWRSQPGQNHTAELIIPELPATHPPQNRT
The experiment in a line: ELISA, PDL1-Fc adsorbed, anti-human IgG (Fab specific)-HRP. The method, then:
(§2) Bound antibody was visualized with an anti-human IgG-HRP conjugate, Fab specific, (Sigma, St Louis, Mo.; Cat # A0293-1ML) and developed with the chromogenic substrate TMB. […] Table 5 provides the SEQ ID NOs for the nucleic acid sequences and amino acids sequences of the respective variable heavy chains.
(§3) Bound antibody was visualized with an anti-human IgG-HRP conjugate, Fab specific, (Sigma, St Louis, Mo.; Cat # A0293-1ML) and developed with the chromogenic substrate TMB.

Experiment [4] deals with T4, human PDL1-Fc (R & D Systems) (human, UniProt Q9NZQ7 19-239).
T4 construct: Bought reagent; not shown: Fc part of the bought fusion protein; not described
T4 sequence (Q9NZQ7 19-239 limits assumed): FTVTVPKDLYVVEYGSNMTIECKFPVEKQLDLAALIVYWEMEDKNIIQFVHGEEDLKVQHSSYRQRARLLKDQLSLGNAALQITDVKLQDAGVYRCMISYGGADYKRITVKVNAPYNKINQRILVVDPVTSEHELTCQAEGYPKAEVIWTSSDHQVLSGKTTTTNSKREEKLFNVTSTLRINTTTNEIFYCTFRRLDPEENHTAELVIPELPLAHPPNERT
The experiment is described as above. The method, then: as §2, §3

Another experiment addresses T5, human B7H3 (R&D Systems) (human, UniProt Q5ZPR3-2 29-245, limits assumed).
T5 sequence (looked up): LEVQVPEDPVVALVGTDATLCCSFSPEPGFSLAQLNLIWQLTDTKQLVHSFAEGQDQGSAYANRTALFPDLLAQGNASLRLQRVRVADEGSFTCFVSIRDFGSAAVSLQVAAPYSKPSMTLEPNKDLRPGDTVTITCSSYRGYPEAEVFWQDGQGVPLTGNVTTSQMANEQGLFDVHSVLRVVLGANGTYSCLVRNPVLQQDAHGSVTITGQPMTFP
The experiment in a line: ELISA, antigen adsorbed. The method, then:
as §3

In experiment [5] the target is T6, human B7-1-Fc (R&D Systems) (human, UniProt P33681 35-242).
T6 construct: not shown: Fc part of the bought fusion protein; not described
T6 sequence (looked up): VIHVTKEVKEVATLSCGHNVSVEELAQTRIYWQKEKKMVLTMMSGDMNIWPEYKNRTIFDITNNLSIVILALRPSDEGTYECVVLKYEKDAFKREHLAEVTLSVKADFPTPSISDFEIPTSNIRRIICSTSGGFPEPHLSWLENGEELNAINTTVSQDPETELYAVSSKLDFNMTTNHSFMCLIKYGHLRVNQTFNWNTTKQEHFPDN
The experiment in a line: ELISA, antigen adsorbed. The method, then:
as §3

For experiment [6], the target named is T7, human CD28-Fc (R&D Systems) (human, UniProt P10747 19-152).
T7 construct: not shown: Fc part of the bought fusion protein; not described
The experiment in a line: ELISA, antigen adsorbed. The method, then: as §3

The target in experiment [7] is T8, cynomolgus monkey (cyno) PDL1-Fc (Sino biological) (cynomolgus monkey, UniProt G7PSE7 19-239).
T8 construct: Bought reagent; not shown: Fc part of the bought fusion protein; not described
T8 sequence (G7PSE7 entry or part of it): as the sequence (Q9NZQ7 19-239 limits assumed) above, with A33T, A34S, S62N, R68Q, Q82R, F173L, T185A, T192I, H215L counted along it
The experiment in a line: ELISA, PDL1 adsorbed. The method, then: as §3

The target in a further experiment is rat PDL1 (rat, UniProt D4AE25 19-239). The experiment in a line: ELISA, PDL1 adsorbed. The method, then: as §3
rat PDL1, sequence (D4AE25 entry or part of it limits assumed, form in doubt): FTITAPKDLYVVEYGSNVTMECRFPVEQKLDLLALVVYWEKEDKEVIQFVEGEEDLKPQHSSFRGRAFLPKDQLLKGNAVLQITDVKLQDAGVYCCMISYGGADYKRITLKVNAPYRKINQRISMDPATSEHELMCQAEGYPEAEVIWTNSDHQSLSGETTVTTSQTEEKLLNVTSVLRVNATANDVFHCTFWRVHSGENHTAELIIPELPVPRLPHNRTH
Experiment [8] concerns the target T3, mouse PDL1-Fc (R & D Systems). The experiment in a line: ELISA, PDL1 adsorbed. The method, then:
as §3

In experiment [9] the target is T4, human PDL1-Fc (R & D Systems). The experiment in a line: ELISA, PDL1 adsorbed. The method, then:
as §3

The target is the same in experiment [10]. The experiment in a line: ELISA saturation binding (figure legend). The method, then:
as §3

Experiment [11] addresses T3, mouse PDL1-Fc (R & D Systems). The experiment in a line: ELISA saturation binding, PDL1-Fc adsorbed. The method, then: as §3
Experiment [12] deals with T4, human PDL1-Fc (R & D Systems). The experiment in a line: ELISA saturation binding, PDL1-Fc adsorbed. The method, then:
as §3

Experiment [13] deals with T6, human B7-1-Fc (R&D Systems). The experiment in a line: Fab-phage ELISA, antigen adsorbed. An excerpt:
(§4) Forty seven (47) individual isolates were chosen from the final pool. […] Briefly, the antigens were adsorbed to the wells of a 96-well ELISA plate, each ligand on a separate plate. Phage were applied to correlative wells on each plate and allowed to bind. Bound phage were visualized with an anti-M13-HRP conjugate and developed with the chromogenic substrate TMB. Based on the results of the ELISA and DNA sequence, 6 unique clones with matured heavy variable CDR3 domains and 10 heavy variable CDR2 domains were chosen for further study. […] Table 4 lists the heavy variable domains encoded by the clones and SEQ ID NOs for the nucleic acid sequences and amino acid sequences of their respective heavy chains.

The target in experiment [14] is T4, human PDL1-Fc (R & D Systems). The experiment in a line: Fab-phage ELISA, antigen adsorbed.
Text: as §4

T1 sequence (Q9EP73 19-238 limits assumed): as the sequence (Q9EP73 19-238 limits assumed) above
T2 sequence (Q9NZQ7 19-239 limits assumed): as the sequence (Q9NZQ7 19-239 limits assumed) above

B1: PDL1 c60 ScFv-phage (scFv)
scFv: EVQLLESGGGLVQPGGSLRLSCAASGFTFSSYAMSWVRQAPGKGLEWVSSIYSTGGATAYADSVKGRFTISRDNSKNTLYLQMNSLRAEDTAVYYCAKSSAGFDYWGQGTLVTVSSGGGGSGGGGSGGGGSTDIQMTQSPSSLSASVGDRVTITCRASQSISSYLNWYQQKPGKAPKLLIYYASTLQSGVPSRFSGSGSGTDFTLTISSLQPEDFATYYCQQDNGYPSTFGQGTKVEIKR
notes: also called clone 60
For the molecule B1, the binding result with mouse PDL1 (R&D Systems) [1] and with human PDL1 (R&D Systems) was “binds” in each case.

B2: mouse PD1-Fc (R&D Systems) (Fc fusion, UniProt Q02242 25-167, looked up)
chain: LEVPNGPWRSLTFYPAWLTVSEGANATFTCSLSNWSEDLMLNWNRLSPSNQTEKQAAFCNGLSQPVQDARFQIIQLPNRHDFHMNILDTRRNDSGIYLCGAISLHPKAKIEESPGAELVVTERILETSTRYPSPSPKPEGRFQ
notes: Bought reagent; also called mPD1; not shown: Fc part of the bought fusion protein; not described
On to B2, for which the binding result with mouse PDL1 (R&D Systems) [2] is “binds”.

B3: anti-PDL1 antibody C5H9 (antibody, V domains shown)
VH: EVQLLESGGGLVQPGGSLRLSCAASGFTFSSYAMSWVRQAPGKGLEWVSSIWRNGIVTVYADSVKGRFTISRDNSKNTLYLQMNSLRAEDTAVYYCAKWSAAFDYWGQGTLVTVSS
VL: DIQMTQSPSSLSASVGDRVTITCRASQSISSYLNWYQQKPGKAPKLLIYYASTLQSGVPSRFSGSGSGTDFTLTISSLQPEDFATYYCQQDNGYPSTFGQGTKVEIKR
notes: Fully human IgG; also called PDL1 C5H9
Regarding B3, the binding result in experiment [3] was “binds”; in experiment [4], “binds”; in the experiment with human B7H3 (R&D Systems), “no binding”; in experiment [5], “no binding”; in experiment [6], “no binding”.

B4: anti-PDL1 antibody C5H9v2 (antibody, V domains shown)
VH: B3 VH
VL: B3 VL with Y50A, T53S, Q100G
notes: IgG; also called anti-PDL1 parental antibody C5H9v2
Consider B4, for which the EC50 in [7] is 0.28 nM; with rat PDL1, 0.31 nM; in experiment [8] it was 0.3 nM; in experiment [9] it was 0.25 nM.

B5: fully human anti-PDL1 c60 IgG (antibody, V domains shown)
VH: B3 VH with W52Y, R53S, N54T, I56G, V57A, V59A, W99S, A102G
VL: B3 VL
notes: Fully human IgG with the variable domains of PDL1 c60; also called anti-PDL1 clone 60:IgG
For B5, the Kd in experiment [10] is ~1 nM; in experiment [11], 30 nM; in experiment [12] it was 1 nM.

B6: PDL1 h9 Fab-phage (Fab, V domains shown)
VH: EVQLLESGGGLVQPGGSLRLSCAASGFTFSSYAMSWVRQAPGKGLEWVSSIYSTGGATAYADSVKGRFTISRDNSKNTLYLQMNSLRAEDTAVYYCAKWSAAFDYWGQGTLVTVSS
VL: B3 VL
notes: also called CDR3 clone H9
For B6, the binding result was “no binding” in experiment [13] and “binds” in experiment [14].

B7: anti-PDL1 antibody C5E10 (antibody, V domains shown)
VH: B3 VH with A101K, A102G
VL: B3 VL
notes: Fully human IgG
As to B7, the binding result in experiment [4] is reported as “binds”; in experiment [5], “no binding”; in [6] it was “no binding”.

B8: anti-PDL1 antibody C5B10 (antibody, V domains shown)
VH: B3 VH with A102G, F103Y
VL: B3 VL
notes: Fully human IgG; also called PDL1 C5B10
Take B8: the binding result in experiment [4] is “binds”; in [5], “no binding”; in [6] it was “no binding”.

(Values after patent US20190382493A1 (CYTOMX THERAPEUTICS, published 2019).)
